Molecular target: GluN1 subunit-containing NMDAR (GluN1-NMDAR), tagged GluN1 expressed at the surface of hippocampal neurons (UniProt P35439 19-938, Only the defined, expressed GluN1 subunit is built: it carries the D1R interaction through its C1 cassette. The canonical 938-aa form is taken as the C1-containing GluN1-1a; the exact splice form is n)
Assay: multidimensional spectral single molecule localization microscopy (MS-SMLM; two-colour quantum-dot single-particle tracking); live cultured hippocampal neurons (immature DIV 7-9; mature DIV 15 and above), surface receptors labelled by antibodies against extracellular tags and Qd-655 / Qd-705; 1000 frames of 50 ms (20 Hz), 37 °C; receptors counted as interacting when their distance fell below 100 nm; Koff estimated …
Details: partners not purified

koff: 13 ± 0.7 s⁻¹
B1: dopamine receptor 1 wild-type (D1R-wt), extracellularly tagged, expressed in hippocampal neurons (receptor, UniProt P18901 1-446, looked up)
chain: MAPNTSTMDEAGLPAERDFSFRILTACFLSLLILSTLLGNTLVCAAVIRFRHLRSKVTNFFVISLAVSDLLVAVLVMPWKAVAEIAGFWPLGPFCNIWVAFDIMCSTASILNLCVISVDRYWAISSPFQYERKMTPKAAFILISVAWTLSVLISFIPVQLSWHKAKPTWPLDGNFTSLEDTEDDNCDTRLSRTYAISSSLISFYIPVAIMIVTYTSIYRIAQKQIRRISALERAAVHAKNCQTTAGNGNPVECAQSESSFKMSFKRETKVLKTLSVIMGVFVCCWLPFFISNCMVPFCGSEETQPFCIDSITFDVFVWFGWANSSLNPIIYAFNADFQKAFSTLLGCYRLCPTTNNAIETVSINNNGAVVFSSHHEPRGSISKDCNLVYLIPHAVGSSEDLKKEEAGGIAKPLEKLSPALSVILDYDTDVSLEKIQPVTHSGQHST
notes: dopamine D1 receptor; also called dopamine D1 receptor; source: cultured rat hippocampal neurons, transfected (calcium phosphate), on live cells; not shown: extracellular tag (GFP or Flag)
